Laboratory results taken from the supplement of paper PMC11908140.

B1: library; numbered along this chain (parent)
chain: MRKPRAAVGSGHRKQAASQEGRQKHAKNNSQAKPSACDGLARQPEEVVLQASVSSYHLFRDVAEVTAFRGSLLSWYDQEKRDLPWRRRAEDEMDLDRRAYAVWVSEVMLQQTQVATVINYYTGWMQKWPTLQDLASASLEEVNQLWAGLGYYSRGRRLQEGARKVVEELGGHMPRTAETLQQLLPGVGRYTAGAIASIAFGQATGVVDGNVARVLCRVRAIGADPSSTLVSQQLWGLAQQLVDPARPGDFNQAAMELGATVCTPQRPLCSQCPVESLCRARQRVEQEQLLASGSLSGSPDVEECAPNTGQCHLCLPPSEPWDQTLGVVNFPRKASRKPPREESSATCVLEQPGALGAQILLVQRPNSGLLAGLWEFPSVTWEPSEQLQRKALLQELQRWAGPLPATHLRHLGEVVHTFSHIKLTYQVYGLALEGQTPVTTVPPGARWLTQEEFHTAAVSTAMKKVFRVYQGQQPGTCMGSKRSQVSSPCSRKKPRMGQQVLDNFFRSHISTDAHSLNSAAQ

Variants of: B1
Assay: 8OG:A repair function score (normalized; synonymous = 0, nonsense = -1) (normalized log-likelihood score); higher = more repair activity (WT-like)
Details: with 8OG:A DNA repair reporter (GFP) in HEK-293 MUTYH KO cells
Procedure, shortened: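 GFP+ (repair) and GFP− bins of viable mCherry+ cells were collected at 72 h from MUTYH knockout HEK-293 cells bearing lentiviral MUTYH cDNA NNN codon-scan libraries in 10 pg/ml doxycycline, co-transfected with an 8OG:A GFP repair reporter and mCherry. Tile amplicons were sequenced, and per-tile Rosace fitness scores were normalized to a repair function score anchored on synonymous and nonsense distributions. Synonymous medians were set to 0 and nonsense to -1, with variants under 300 counts per million at the start removed.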
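Further: cells sorted at 72 h after reporter transfection.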

Compared with MRKPRAAVGSGHRKQAASQEGRQKHAKNNSQAKPSACDGLARQPEEVVLQASVSSYHLFRDVAEVTAFRGSLLSWYDQEKRDLPWRRRAEDEMDLDRRAYAVWVSEVMLQQTQVATVCNYYTGWMQKWPTLQDLASASLEEVNQLWAGLGYYSRGRRLQEGARKVVEELGGHMPRTAETLQQLLPGVGRYTAGAIASIAFGQATGVVDGNVARVLCRVRAIGADPSSTLVSQQLWGLAQQLVDPARPGDFNQAAMELGATVCTPQRPLCSQCPVESLCRARQRVEQEQLLASGSLSGSPDVEECAPNTGQCHLCLPPSEPWDQTLGVVNFPRKASRKPPREESSATCVLEQPGALGAQILLVQRPNSGLLAGLWEFPSVTWEPSEQLQRKALLQELQRWAGPLPATHLRHLGEVVHTFSHIKLTYQVYGLALEGQTPVTTVPPGARWLTQEEFHTAAVSTAMKKVFRVYQGQQPGTCMGSKRSQVSSPCSRKKPRMGQQVLDNFFRSHISTDAHSLNSAAQ [I118C], MRKPRAAVGSGHRKQAASQEGRQKHAKNNSQAKPSACDGLARQPEEVVLQASVSSYHLFRDVAEVTAFRGSLLSWYDQEKRDLPWRRRAEDEMDLDRRAYAVWVSEVMLQQTQVATVINYYTGWMQKWPTLQDLASASLEEVNQLWAGLGYYSRGRRLQEGARKVVEELGGHMPRTAETLQQLLPGVGRYTAGAIASIAFGQATGVVDGNVARVLCRVRAIGADPSSTLVSQQLWGLAQQLVDPARPGDFNQAAMELGATVCTPQRPLCSQCPVESLCRARQRVEQEQLLASGSLSGSPDVEECAPNTGQCHLCLPPSEPWDQTLGVVNFPRKASRKPPREESSATCVLEQPGALGAQILLVQRPNSGLLAGLWEFPSVTWEPSEQLQRKALLQELQRWAGPLPATHLRHLGEVVHTFSHIKLTYQVYGLALEGQTPVTTVPPGARWLTQEEFHTAAVSTAMKKVFRVYQGQQPGTCMGSKRSQVSSPCSRKKPRMGQQVTDNFFRSHISTDAHSLNSAAQ [L501T] is lower in “8OG:A repair function score” value: 0.0146 for the first, -0.0124 for the second.

Going from MRKPRAAVGSGHRKQAASQEGRQKHAKNNSQAKPSACDGLARQPEEVVLQASVSSYHLFRDVAEVTAFRGSLLSWYDQEKRDLPWRRRAEDEMDLDRRAYAVWVSEVMLQQTQVATVINYYTGWMQKWPTLQDLASASLEEVNQLWAGLGYYSRGRRLQEGARKVVEELGGHMIRTAETLQQLLPGVGRYTAGAIASIAFGQATGVVDGNVARVLCRVRAIGADPSSTLVSQQLWGLAQQLVDPARPGDFNQAAMELGATVCTPQRPLCSQCPVESLCRARQRVEQEQLLASGSLSGSPDVEECAPNTGQCHLCLPPSEPWDQTLGVVNFPRKASRKPPREESSATCVLEQPGALGAQILLVQRPNSGLLAGLWEFPSVTWEPSEQLQRKALLQELQRWAGPLPATHLRHLGEVVHTFSHIKLTYQVYGLALEGQTPVTTVPPGARWLTQEEFHTAAVSTAMKKVFRVYQGQQPGTCMGSKRSQVSSPCSRKKPRMGQQVLDNFFRSHISTDAHSLNSAAQ [P174I] to MRKPRAAVGSGHRKQAASQEGRQKHAKNNSQAKPSACDGLARQPEEVVLQASVSSYHLFRDVAEVTAFRGSLLSWYDQEKRDLPWRRRAEDEMDLDRRAYAVWVSEVMLQQTQVATVINYYTGWMQKWPTLQDLASASLEEVNQLWAGLGYYSRGRRLQEGARKVVEELGGHMPRTAETLQQLLPGVGRYTAGAIASIAFGQATGVVDGNVARVLCRVRAIEADPSSTLVSQQLWGLAQQLVDPARPGDFNQAAMELGATVCTPQRPLCSQCPVESLCRARQRVEQEQLLASGSLSGSPDVEECAPNTGQCHLCLPPSEPWDQTLGVVNFPRKASRKPPREESSATCVLEQPGALGAQILLVQRPNSGLLAGLWEFPSVTWEPSEQLQRKALLQELQRWAGPLPATHLRHLGEVVHTFSHIKLTYQVYGLALEGQTPVTTVPPGARWLTQEEFHTAAVSTAMKKVFRVYQGQQPGTCMGSKRSQVSSPCSRKKPRMGQQVLDNFFRSHISTDAHSLNSAAQ [G222E], the “8OG:A repair function score” value rises from -0.9 to -0.565.

Going from MRKPRAAVGSGHRKQAASQEGRQKHAKNNSQAKPSACDGLARQPEEVVLQASVSSYHLFRDVAEVTAFRGSLLSWYDQEKRDLPWRRRAEDEMDLDRRAYAVWVSEVMLQQTQVATVINYYTGWMQKWPTLQDLASASLEEVNQLWAGLGYYSRGRRLQEGARKVVEELGGHMPRTAETLQQLLPGVGRYTAGAIASIAFGQATGVVDGNVARVLCRVRAIGADPSSTLVSQQLWGLAQQLVDPARPGDFNQAAMELGATVCTPQRPLCSQCPVESLCRARQRVEQEQLLASGSLSGSPDVEECAPNTGQCHLCLPPSEPWDQTLGVVNFPRKASRKPPREESSATCVLEQPGALGAQILLVQRPNSGLLAGLWEFPSVTWEPSEQLQRKALLQELQRWAGPLPATHLRHLGEVVHTFSHIKLTYQVYGLALEGQTPATTVPPGARWLTQEEFHTAAVSTAMKKVFRVYQGQQPGTCMGSKRSQVSSPCSRKKPRMGQQVLDNFFRSHISTDAHSLNSAAQ [V438A] to MRKPRAAVGSGHRKQAASQEGRQKHAKNNSQAKPSACDGLARQPEEVVLQASVSSYHLFRDVAEVTAFRGSLLSWYDQEKRDLPWRRRAEDEMDLDRRAYAVWVSEVMLQQTQVATVINYYTGWMQKWPTLQDLASASLEEVNQLWAGLGYYSRGRRLQEGARKVVEELGGHMPRTAETLQQLLPGVGRYTAGAIASIAFGQATGVVDGNVARVLCRVRAIGADPSSTLVSQQLWGLAQQLVDPARPGDFNQAAMELGATVCTPQRPLCSQCPVESLCRARQRVEQEQLLASGSLSGSPDVEECAPNTGQCHLCLPPSEPWDQTLGVVNFPRKASRKPPREESSATCVLEQPGALGAQILLVQRPNSGLLAGLWEFPSVTWEPSEQLQRKALLQELQRWAGPLPATHLRHLGEVVHTFSGIKLTYQVYGLALEGQTPVTTVPPGARWLTQEEFHTAAVSTAMKKVFRVYQGQQPGTCMGSKRSQVSSPCSRKKPRMGQQVLDNFFRSHISTDAHSLNSAAQ [H420G], the “8OG:A repair function score” value falls from 0.149 to -0.0793.

Going from MRKPRAAVGSGHRKQAASQEGRQKHAKNNSQAKPSACDGLARQPEEVVLQASVSSYHLFRDVAEVTAFRGSLLSWYDQEKRDLPWRRRAEDEMDLDRRAYAVWVSEVMLQQTQVATVINYYTGWMQKWPTLQDLASASLEEVNQLWAGLYYYSRGRRLQEGARKVVEELGGHMPRTAETLQQLLPGVGRYTAGAIASIAFGQATGVVDGNVARVLCRVRAIGADPSSTLVSQQLWGLAQQLVDPARPGDFNQAAMELGATVCTPQRPLCSQCPVESLCRARQRVEQEQLLASGSLSGSPDVEECAPNTGQCHLCLPPSEPWDQTLGVVNFPRKASRKPPREESSATCVLEQPGALGAQILLVQRPNSGLLAGLWEFPSVTWEPSEQLQRKALLQELQRWAGPLPATHLRHLGEVVHTFSHIKLTYQVYGLALEGQTPVTTVPPGARWLTQEEFHTAAVSTAMKKVFRVYQGQQPGTCMGSKRSQVSSPCSRKKPRMGQQVLDNFFRSHISTDAHSLNSAAQ [G150Y] to MRKPRAAVGSGHRKQAASQEGRQKHAKNNSQAKPSACDGLARQPEEVVLQASVSSYHLFRDVAEVTAFRGSLLSWYDQEKRDLPWRRRAEDEMDLDRRAYAVWVSEVMLQQTQVATVINYYTGWMQKWPTLQDLASASLEEVNQHWAGLGYYSRGRRLQEGARKVVEELGGHMPRTAETLQQLLPGVGRYTAGAIASIAFGQATGVVDGNVARVLCRVRAIGADPSSTLVSQQLWGLAQQLVDPARPGDFNQAAMELGATVCTPQRPLCSQCPVESLCRARQRVEQEQLLASGSLSGSPDVEECAPNTGQCHLCLPPSEPWDQTLGVVNFPRKASRKPPREESSATCVLEQPGALGAQILLVQRPNSGLLAGLWEFPSVTWEPSEQLQRKALLQELQRWAGPLPATHLRHLGEVVHTFSHIKLTYQVYGLALEGQTPVTTVPPGARWLTQEEFHTAAVSTAMKKVFRVYQGQQPGTCMGSKRSQVSSPCSRKKPRMGQQVLDNFFRSHISTDAHSLNSAAQ [L145H], the “8OG:A repair function score” value rises from -0.803 to 0.0825.

Compared with MRKPRAAVGSGHRKQAASQEGRQKHAKNNSQAKPSACDGLARQPEEVVLQASVSSYHLFRDVAEVTAFRGSLLSWYDQEKRDLPWRRRAEDEMDLDRRAYAVWVSEVMLQQTQVATVINYYTGWMQKWPTLQDLASASLEEVNQLWAGLGYYSRGRRLQEGARKVVEELMGHMPRTAETLQQLLPGVGRYTAGAIASIAFGQATGVVDGNVARVLCRVRAIGADPSSTLVSQQLWGLAQQLVDPARPGDFNQAAMELGATVCTPQRPLCSQCPVESLCRARQRVEQEQLLASGSLSGSPDVEECAPNTGQCHLCLPPSEPWDQTLGVVNFPRKASRKPPREESSATCVLEQPGALGAQILLVQRPNSGLLAGLWEFPSVTWEPSEQLQRKALLQELQRWAGPLPATHLRHLGEVVHTFSHIKLTYQVYGLALEGQTPVTTVPPGARWLTQEEFHTAAVSTAMKKVFRVYQGQQPGTCMGSKRSQVSSPCSRKKPRMGQQVLDNFFRSHISTDAHSLNSAAQ [G170M], MRKPRAAVGSGHRKQAASQEGRQKHAKNNSQAKPSACDGLARQPEEVVLQASVSSYHLFRDVAEVTAFRGSLLSWYDQEKRDLPWRRRAEDEMDLDRRAYAVWVSEVMLQQTQVATVINYYTGWMQKWPTLQDLASASLEEVNQLWAGLGYYSRGRRLQEGARKVVEELGGHMPRTAETLQQLLPGVGRYTAGAIASIAFGQATGVVDGNVARVLCRVRAIGADPSSTLVSQQLWGLAQQLVDPARPGDFNQAAMELGATVCTPQRPLCSQCPVESLCRARDRVEQEQLLASGSLSGSPDVEECAPNTGQCHLCLPPSEPWDQTLGVVNFPRKASRKPPREESSATCVLEQPGALGAQILLVQRPNSGLLAGLWEFPSVTWEPSEQLQRKALLQELQRWAGPLPATHLRHLGEVVHTFSHIKLTYQVYGLALEGQTPVTTVPPGARWLTQEEFHTAAVSTAMKKVFRVYQGQQPGTCMGSKRSQVSSPCSRKKPRMGQQVLDNFFRSHISTDAHSLNSAAQ [Q282D] is lower in “8OG:A repair function score” value: -0.0605 for the first, -0.125 for the second.

First: MRKPRAAVGSGHRKQAASQEGRQKHAKNNSQAKPSACDGLARQPEEVVLQASVFSYHLFRDVAEVTAFRGSLLSWYDQEKRDLPWRRRAEDEMDLDRRAYAVWVSEVMLQQTQVATVINYYTGWMQKWPTLQDLASASLEEVNQLWAGLGYYSRGRRLQEGARKVVEELGGHMPRTAETLQQLLPGVGRYTAGAIASIAFGQATGVVDGNVARVLCRVRAIGADPSSTLVSQQLWGLAQQLVDPARPGDFNQAAMELGATVCTPQRPLCSQCPVESLCRARQRVEQEQLLASGSLSGSPDVEECAPNTGQCHLCLPPSEPWDQTLGVVNFPRKASRKPPREESSATCVLEQPGALGAQILLVQRPNSGLLAGLWEFPSVTWEPSEQLQRKALLQELQRWAGPLPATHLRHLGEVVHTFSHIKLTYQVYGLALEGQTPVTTVPPGARWLTQEEFHTAAVSTAMKKVFRVYQGQQPGTCMGSKRSQVSSPCSRKKPRMGQQVLDNFFRSHISTDAHSLNSAAQ [S54F]
Second: MRKPRAAVGSGHRKQAASQEGRQKHAKNNSQAKPSACDGLARQPEEVVLQASVSSYHLFRDVAEVTAFRGSLLSWYDQEKRDLPWRRRAEDEMDLDRRAYAVWVSEVMLQQTQVATVINYYTGWMQKWPTLQDLASASLEEVNQLWAGLGYYSRGRRLQEGARKVVEELGGHMPRTAETLQQLLPGVGRYTAGAIASIAFGQATGVVDGNVARVLCRVRAIGADPSSTLVSQQLWGLAQQLVDPARPGDFNQAAMELGATVCTPQRPLCSQCPVESLCRARQRVEQEQLLASGSLSGSPDVEECAPNTGQCHLCLPPSEPWDQTLGVVNFPRKASRKPPREESSATCVLEQPGALGAQILLVQRPNSGLLAGLWEFPSVTWEPSEQLQRKALLQELQRWAGPLPATHLRHLGEVVHTFSHIKLTYQVYGLALEGQTPVTTVPPGARWLTQEEFHTAAVSTAMKKVFRVYQGQQPGTCMGSKRSQVSSPCSRKKPRMGQQVLDNFFRSHISTDAHSLNRAAQ [S518R]
The “8OG:A repair function score” value of the first is lower: -0.0664 for the first, -0.0226 for the second.
